Source: patent publication US20140017790A1, “CONTROL AGENT FOR CONTROLLING UNDIFFERENTIATED STATE AND USE THEREOF” (RIKEN, priority 2011, published 2014)

Legend:
Assay type in all cases: cell-based
human iPS cells [1] = assay: differentiation of EBs to myocardial cells, morphology and Tropomyosin immunostaining; conditions: 10th day from the plating; CCL2(+)/LIF(+) or CCL2(-)/bFGF(+) 5 ng/ml
From the text: It has been reported that, in general, according to the spontaneous differentiation-inducing method used in the above item (1), differentiation into myocardial cells is more liable to occur. Thus, regarding the cells on the 10th day from the plating in the above item (1), differentiation into myocardial cells was examined.
The morphology of the cells was examined with a microscope. Furthermore, they were immunostained with a Tropomyosin, which is a marker for myocardial cells. Also, culture of the cells, observation of the morphology, and staining were carried out in the same manner as in the above using a medium to which bFGF (5 ng/ml) has been added instead of the CCL2 and LIF.
The photographs in FIG. 19 show the morphologies of the cells on the 10th day from the plating of EB. […] Furthermore, in FIGS. 19A and 19B, the photographs on the left show the cell morphologies, and the photographs on the right show the stained cells. In the black and white photographs of FIG. 19, the stained portions are seen as light gray.

mouse iPS cells = assay: quantitative RT-PCR of undifferentiated marker genes, CCL2 overexpressed in mouse iPS cells; conditions: CCL2 overexpressed (Ccl2 expression vector), feeder free, 24 hours
Experimental: A PrimeScript RT-PCR Kit (trade name, TAKARA BIO INC.), an ABI 7500 Fast real time PCR system (trade name, Applied BioSystems), and a SYBR (registered trademark) Premix Ex Taq (trade name, TAKARA BIO INC.) were used in accordance with their protocols. PCR was carried out by conducting 40 cycles of treatment with a treatment at 94° C. for 5 second and at 62.5° C. for 20 seconds as 1 cycle. The expression level of each gene was calculated by normalizing the relative amount of mRNA in the gene to Gapdh mRNA according to the 2^−ΔΔ^CT method (Thomse R, Solvsten C A, Linnet T E, et al., Analysis of qPCR data by converting exponentially related Ct values into linearly related XO values. J Bioinform Comput Biol 2010: 8: 885-900.).
In the following manner, CCL2 was overexpressed in the mouse iPS cells, and the expression levels of undifferentiated marker genes were examined. The undifferentiated marker genes were the Ecat1 gene, Cripto gene, Oct3/4 gene, Zfp42 gene, Esg1 gene, Eras gene, Fgf4 gene, Dax1 gene, Nanog gene, Sox2 gene, Klf4 gene, cMyc gene, Tbx3 gene, and Eed gene.
A Ccl2 expression vector that overexpresses CCL2 was constructed. The CCL2 to be expressed was a mouse-derived protein having a full-length amino acid sequence of SEQ ID NO: 3. First, using a Gateway Technology (Invitrogen), a full-length cDNA (SEQ ID NO: 6) coding for the CCL2 was cloned into a pENTER/D-TOPO vector. The cloned sequence was confirmed, and thereafter, the full-length cDNA was inserted into an EF-α1 promoter-containing pEF-DEST51 vector (Invitrogen) using a Gateway LR Clonase II Enzyme Mix (Invitrogen), thus constructing the Ccl2 expression vector. The Ccl2 expression vector was purified using an Endotoxin free Plasmid maxi prep kit (Qiagen) in accordance with its protocol.
Next, the mouse iPS cells cultured under the feeder free conditions were seeded in a 12-well dish at a density of 3×10^5 cells/well. The amount of a medium to be added to the dish was set to 1 ml/well. Then, using 16 μl of a Lipofectamine 2000 (Invitrogen) and 4.8 μg of the Ccl2 expression vector per well, the mouse iPS cells were transfected with the Ccl2 expression vector. These mouse iPS cells were cultured for another 24 hours under feeder free conditions. Thereafter, total RNAs were extracted, and the expression levels of the undifferentiated marker genes were examined. The expressions of the undifferentiated marker genes were examined by the quantitative RT-PCR using the above-described primers. […] Then, the fold changes in expression level relative to the negative control were calculated.

KLF4 = assay: KLF4/GAPDH ratio in human iPS cells; conditions: feeder conditions, 6 days, negative control (bFGF) = 1
Experimental: Then, the ratio of the phosphorylated AKT to the non-phosphorylated AKT (p-AKT/AKT) was determined. Assuming that the value of the p-AKT/AKT in the negative control was “1”, the relative value was calculated. Also, the ratio of the KLF4 gene expression to the GAPDH gene expression (KLF4/GAPDH) was determined. Assuming that KLF4/GAPDH in the negative control was “1”, the relative value was calculated.
Also, the ratio of KLF4 to GAPDH (KLF4/GAPDH) was determined. Assuming that KLF4/GAPDH in the negative control was “1”, the relative value was calculated. FIG. 15D is a graph showing the relative value of the ratio of KLF4 to GAPDH (KLF4/GAPDH).

human iPS cells [2] = assay: culture of human iPS cells in feeder free media, EB plating, cell adhesion
From the text: As undifferentiated cells, the same human iPS cells as used in Example 7 were used. As CCL2, the mouse recombinant CCL2 used in the item (1) of Example 2 was used. As feeder free media, the following three kinds of media were provided by adding or not adding the CCL2, LIF and bFGF to the medium for human stem cells used in Example 8. Specifically, the media used were as follows: the medium with CCL2 not added (−)/LIF not added (−)/bFGF added (+); the medium with CCL2 added (+)/LIF not added (−)/bFGF not added (−); and the medium with CCL2 added (+)/LIF added (+)/bFGF not added (−). In each medium, the concentration of the LIF was set to 50 units/ml, the concentration of the CCL2 was set to 500 ng/ml, and the concentration of the bFGF was set to 5 ng/ml. Then, the human iPS cells were cultured for 6 days using each medium, and EBs were produced. Thereafter, the thus-produced EBs were seeded in gelatin coated dishes so that each gelatin coated dish contained one EB, and cultured for 5 days in a medium (DMEM) containing 20% FBS.
The photographs in FIG. 20 show the cell morphologies of the EBs on the 5th day from the plating.

B1: CCL2: mouse recombinant CCL2 (MCP-1, #479-JE-010, R&D Systems); in Examples 1, 3, 4(1), 5 mouse CCL2 (SEQ ID NO: 3) overexpressed from Ccl2 expression vector (protein, listed as Mus musculus)
chain: MQVPVMLLGLLFTVAGWSIHVLAQPDAVNAPLTCCYSFTSKMIPMSRLESYKRITSSRCPKEAVVFVTKLKREVCADPKKEWVQTYIKNLDRNQMRSEPTTLFKTASALRSSAPLNVKLTRKSEANASTTFSTTTSSTSVGVTSVTVN
cell morphology of EBs, differentiation into myocardial cells (human iPS cells [1]): most of them exhibited myocardial cell-like morphology | staining with Tropomyosin (marker for myocardial cells) (human iPS cells [1]): entirely stained red | expression of the Klf4 gene, fold change relative to negative control (mouse iPS cells): increased markedly | expression of the Nanog gene, fold change relative to negative control (mouse iPS cells): increased markedly | expression of the Sox2 gene, fold change relative to negative control (mouse iPS cells): increased markedly | expression of the Tbx3 gene, fold change relative to negative control (mouse iPS cells): increased markedly | KLF4 expression (KLF4/GAPDH), relative value (KLF4): about 1.7 fold | cell adhesion (human iPS cells [2]; CCL2 500 ng/ml + LIF 50 units/ml, bFGF not added): observed | colony growth (human iPS cells [2]; CCL2 500 ng/ml + LIF 50 units/ml, bFGF not added, culture for 5 days): observed | cell adhesion (human iPS cells [2]; LIF not added, CCL2 500 ng/ml alone or bFGF 5 ng/ml alone): observed
